According to patent US10670612B2, “Immunoassay standards and measurement of clinical biomarkers using intra-assay calibration standards” (Saladax Biomedical, Inc., priority 2010, dated 2020):
Ends that are not written are not given here.

Assay: Dynamic light scattering
Type: physicochemical
Conditions: phosphate buffer pH 7.4, 25° C.
Protocol: One set was prepared at 1.0 mg/ml, the second set was prepared at 0.10 mg/ml, and stored at room temperature. Peptides were dissolved by vortexing for 1 min, and centrifuged in a microcentrifuge for 5 min at 14,000 rpm, at room temperature. For Aβ42 samples (MSD), vials containing 0.1 mg peptide were suspended in 1.0 ml buffer, and treated as above. A volume (200 μl) of each centrifuged 1.0 mg/ml stock was transferred to a 0.5 ml polypropylene tube, and provided for NMR analysis.
The absorbance spectra of all samples were recorded (220-750 nm) using a NANODROP® ND-1000 instrument, and blanked against the buffer. Dynamic light scattering analysis was conducted on the peptides in a 384 well polystyrene plate (CORNING®, type 3540) with a Wyatt DLS DynaPro plate reader. Data collection and analysis was completed using software from the manufacturer (DYNAMICS, versions 7.0.0.94 and 7.0.1.12). Each peptide was evaluated in triplicate with 30 μl loaded per well, and overlaid with 5 μl mineral oil, to minimize evaporation. Buffer blanks were also included in the analysis for comparison. After loading the plate, a transparent adhesive sealing tape cover was applied to the plate and the plate was centrifuged for 2 min at 1000 rpm. Each sample on the plate was read 30 times, 5 sec per acquisition, maintaining a temperature of 25° C. Data sets were collected on both the 1.0 mg/ml and 0.10 mg/ml samples over the course of 27 days. The adhesive cover was removed to read the samples in the plate reader, and used to cover the plate between readings over the 27 day time course.
FIGS. 7A through 7F show dynamic light scattering data. In FIGS. 7A-F, the full length Aβ42 peptide was subjected to DLS analysis and compared to four representative modified peptides. […] FIG. 7a represents the raw data accumulated for all five peptides. Shown is the intensity autocorrelation versus time. […] FIGS. 7b-7f depict the percent mass versus the radius of the peptides. Monomeric peptides would be represented by a larger percent mass at the smaller radius size.

DAEFRHDSGYEVHHQKEERPIGLMVGGVVIA (not fully specified) [GS#4, native Aβ42 amino acids (1-16)-EERP-native Aβ42 amino acids (32-42)]
% Intensity (DLS Peak 1): 3.8% | % Mass (DLS Peak 1): 97.7% | % Pd (DLS Peak 1): 3.2% | Mw-R (DLS Peak 1): 6.0 kDa | Radius (DLS Peak 1): 1.3 nm | % Intensity (DLS Peak 2): 0.6% | % Mass (DLS Peak 2): 0.2% | % Pd (DLS Peak 2): 0.0% | Mw-R (DLS Peak 2): 225.0 kDa | Radius (DLS Peak 2): 6.0 nm | % Intensity (DLS Peak 3): 5.2% | % Mass (DLS Peak 3): 0.0% | % Pd (DLS Peak 3): 4.5% | Mw-R (DLS Peak 3): 7527.0 kDa | Radius (DLS Peak 3): 27.0 nm | % Intensity (DLS Peak 4): 25.1% | % Mass (DLS Peak 4): 0.2% | % Pd (DLS Peak 4): 4.3% | Mw-R (DLS Peak 4): 283287.0 kDa | Radius (DLS Peak 4): 127.0 nm
